Laboratory results as given in article PMC8759039, “EjRAV1/2 Delay Flowering Through Transcriptional Repression of EjFTs and EjSOC1s in Loquat”.

B1: EjFT1-P1 (dsDNA)
DNA 1: TGGCAATATGACATGCAATGCAACAGAATATAAATAGTTGATTTTG
DNA 2: CAAAATCAACTATTTATATTCTGTTGCATTGCATGTCATATTGCCA
B2: EjFT1-P1 unlabeled (dsDNA)
DNA 1: B1 DNA 1
DNA 2: B1 DNA 2

Tests used:
[1] = biological target: T1, EjRAV1 (Eriobotrya japonica, UniProt A0A482LZ61 1-403); assay: EMSA; Beyotime EMSA/Gel Shift kit, chemiluminescent biotin detection; buffer, salt, pH and temperature not stated; conditions: protein: recombinant; tags: 6xHis (pET28a); label: biotin (ends); blunt
[2] = biological target: EjRAV2 (Eriobotrya japonica, UniProt A0A482LTM5 1-406); assay: as above; conditions: protein: recombinant; tags: 6xHis (pET28a); label: biotin (ends); blunt
[3] = biological target: T1, EjRAV1; assay: competition; excess unlabeled vs biotin P1; Beyotime EMSA/Gel Shift kit, chemiluminescent biotin detection; buffer, salt, pH and temperature not stated; conditions: protein: recombinant; tags: 6xHis (pET28a); blunt

T1 sequence (A0A482LZ61 entry or part of it): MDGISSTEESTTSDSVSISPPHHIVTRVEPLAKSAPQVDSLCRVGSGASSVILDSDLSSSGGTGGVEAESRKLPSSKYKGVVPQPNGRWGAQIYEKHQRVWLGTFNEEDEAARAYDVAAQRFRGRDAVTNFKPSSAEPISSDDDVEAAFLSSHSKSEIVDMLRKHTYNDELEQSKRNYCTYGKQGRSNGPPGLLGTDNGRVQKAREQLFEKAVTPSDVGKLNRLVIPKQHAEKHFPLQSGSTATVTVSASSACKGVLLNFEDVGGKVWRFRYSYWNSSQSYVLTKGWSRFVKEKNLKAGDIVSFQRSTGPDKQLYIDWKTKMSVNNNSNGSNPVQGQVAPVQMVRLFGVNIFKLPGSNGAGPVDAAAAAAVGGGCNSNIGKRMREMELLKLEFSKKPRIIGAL
Chain of EjRAV2 (A0A482LTM5 entry or part of it): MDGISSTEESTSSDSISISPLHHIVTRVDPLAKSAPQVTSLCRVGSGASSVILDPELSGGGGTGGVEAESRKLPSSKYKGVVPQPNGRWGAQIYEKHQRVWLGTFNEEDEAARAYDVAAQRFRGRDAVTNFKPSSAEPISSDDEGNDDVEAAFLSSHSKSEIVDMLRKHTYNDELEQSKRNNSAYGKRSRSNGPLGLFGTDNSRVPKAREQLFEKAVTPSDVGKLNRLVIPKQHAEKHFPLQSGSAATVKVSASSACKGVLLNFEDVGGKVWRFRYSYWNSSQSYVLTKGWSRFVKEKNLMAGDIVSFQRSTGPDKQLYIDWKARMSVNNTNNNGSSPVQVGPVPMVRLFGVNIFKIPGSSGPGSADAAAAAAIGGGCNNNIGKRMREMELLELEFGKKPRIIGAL

Row | Binder | binding result [1] | binding result [2] | binding result [3]
1 | B1 | binds | no binding | 
2 | B2 |  |  | binds
